Data published in the supplement of paper PMC10567573.

B1: NP_009172.2 (parent)
chain: LPALFTDLYSQEITAEEAREALP

Variants of: B1
Assay: protein stability index of a GFP-peptide fusion (GPS, HEK-293T) (PSI 1-6); higher = more stable
Conditions: c terminus: native
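Note: lentivirally expressed fusion library, cells FACS-sorted into six equal-sized GFP/DsRed ratio bins, PSI computed from sequencing read fractions per bin weighted by bin number.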

| Variant | protein stability index |
| --- | --- |
| LPAPFTDLYSQEITAEEAREALP [L4P] | 4.94 |
| LPAMFTDLYSQEITAEEAREALP [L4M] | 3.19 |
| LPAVFTDLYSQEITAEEAREALP [L4V] | 4.59 |
| LPALFTDLYSQEITAEEAREMLP [A21M] | 2.23 |
| LPALFTDLYSQEITAEEAREQLP [A21Q] | 2.46 |
| LPALFTDLYSQEITAEEAREHLP [A21H] | 2.29 |
| LPALFTDLYSQEITAEEAREDLP [A21D] | 3.67 |
| LPALFTDLYSQEITAEEARECLP [A21C] | 2.46 |
| LPALFTDLYSQEITAEEAREPLP [A21P] | 2.69 |
| LPALFTDLYSQEITAEEARENLP [A21N] | 2.6 |
| LPALFTDLYSQEITAEENREALP [A18N] | 2.75 |
| LPALFTDLYSQEITAEEVREALP [A18V] | 2.71 |
| LPALFTDLYSQEITAEEWREALP [A18W] | 2.67 |
| LPALFTDLYSQEITAEEPREALP [A18P] | 3.08 |
| LPALFTDLYSQEITAEESREALP [A18S] | 2.72 |
| LPALFTDLYSQEITAEEQREALP [A18Q] | 2.86 |
| LPALFTDLYSQEITAEELREALP [A18L] | 2.51 |
| LPALFTDLYSQEITAEEKREALP [A18K] | 2.26 |
| LPALFTDLYSQEITAEECREALP [A18C] | 2.91 |
| LPALFTDLYSQEITAEEGREALP [A18G] | 2.95 |
| LPALFTHLYSQEITAEEAREALP [D7H] | 3.13 |
| LPALFTCLYSQEITAEEAREALP [D7C] | 3.44 |
| LPALFTALYSQEITAEEAREALP [D7A] | 2.88 |
| LPALFTTLYSQEITAEEAREALP [D7T] | 2.57 |
| LPALFTWLYSQEITAEEAREALP [D7W] | 2.48 |

| Variant | protein stability index |
| --- | --- |
| LPALFTILYSQEITAEEAREALP [D7I] | 2.49 |
| LPALFTGLYSQEITAEEAREALP [D7G] | 4.02 |
| LPALFTPLYSQEITAEEAREALP [D7P] | 4.4 |
| LPALFTDLYSQEITAEEAREACP [L22C] | 2.65 |
| LPALFTDLYSQEITAEEAREADP [L22D] | 4.62 |
| LPALFTDLYSQEITAEEAREAGP [L22G] | 2.88 |
| LPALFTDLYSQEITAEEAREANP [L22N] | 4.7 |
| LPALFTDLYSQEITAEEAREAVP [L22V] | 3.17 |
| LPALFTDLYSQEITAEEAREAQP [L22Q] | 3.01 |
| LPALFTDLYSQEITAEEAREASP [L22S] | 3.59 |
| LPALFTDLYSQEITAEEAREAFP [L22F] | 3.49 |
| LPALFTDLYSQEITAEEAREAAP [L22A] | 3.54 |
| LPALFTDLYSQEITAEEAREAHP [L22H] | 3.44 |
| LSALFTDLYSQEITAEEAREALP [P2S] | 2.71 |
| LAALFTDLYSQEITAEEAREALP [P2A] | 2.69 |
| LCALFTDLYSQEITAEEAREALP [P2C] | 2.64 |
| LMALFTDLYSQEITAEEAREALP [P2M] | 2.79 |
| LIALFTDLYSQEITAEEAREALP [P2I] | 2.37 |
| LGALFTDLYSQEITAEEAREALP [P2G] | 3.03 |
| LQALFTDLYSQEITAEEAREALP [P2Q] | 2.69 |
| LHALFTDLYSQEITAEEAREALP [P2H] | 2.52 |
| LPALFTDLYSQEITAEEARGALP [E20G] | 2.11 |
| LPALFTDLYSQEITAEEARPALP [E20P] | 2.86 |
| LPALFTDLYSQEITAEEARRALP [E20R] | 1.98 |
| LPALFTDLYSQEITAEEARAALP [E20A] | 2.41 |

| Variant | protein stability index |
| --- | --- |
| LPALFTDLYSQEITAEEARIALP [E20I] | 2.32 |
| LPALFTDLYSQEITAEEARWALP [E20W] | 2.42 |
| LPALFADLYSQEITAEEAREALP [T6A] | 2.34 |
| LPALFYDLYSQEITAEEAREALP [T6Y] | 4.5 |
| LPALFQDLYSQEITAEEAREALP [T6Q] | 2.18 |
| LPALFWDLYSQEITAEEAREALP [T6W] | 4.06 |
| LPALFKDLYSQEITAEEAREALP [T6K] | 3.32 |
| LPALFFDLYSQEITAEEAREALP [T6F] | 4.22 |
| LPALFCDLYSQEITAEEAREALP [T6C] | 3.02 |
| LPALFIDLYSQEITAEEAREALP [T6I] | 2.7 |
| LPALFTDAYSQEITAEEAREALP [L8A] | 3.14 |
| LPALFTDIYSQEITAEEAREALP [L8I] | 2.59 |
| LPALFTDEYSQEITAEEAREALP [L8E] | 4.59 |
| LPALFTDNYSQEITAEEAREALP [L8N] | 3.46 |
| LPALFTDGYSQEITAEEAREALP [L8G] | 5.28 |
| LPALFTDTYSQEITAEEAREALP [L8T] | 3.69 |
| LPALFTDYYSQEITAEEAREALP [L8Y] | 2.53 |
| LPALFTDSYSQEITAEEAREALP [L8S] | 4.05 |
| LPALFTDQYSQEITAEEAREALP [L8Q] | 2.91 |
| LPALFTDLYSQEITAEEALEALP [R19L] | 2.47 |
| LPALFTDLYSQEITAEEAAEALP [R19A] | 2.75 |
| LPALFTDLYSQEITAEEAQEALP [R19Q] | 2.75 |
| LPALFTDLYSQEITAEEAVEALP [R19V] | 2.8 |
| LPALFTDLYSQEITAEEACEALP [R19C] | 2.93 |
| LPALFTDLYSQEITAEEASEALP [R19S] | 2.89 |

| Variant | protein stability index |
| --- | --- |
| LPALFTDLYSQEITAEEAHEALP [R19H] | 2.82 |
| LPALFTDLYSQEITAEEAEEALP [R19E] | 2.81 |
| LPALFTDLYSQAITAEEAREALP [E12A] | 3.56 |
| LPALFTDLYSQMITAEEAREALP [E12M] | 2.93 |
| LPALFTDLYSQDITAEEAREALP [E12D] | 2.99 |
| LPALFTDLYSQQITAEEAREALP [E12Q] | 2.69 |
| LPALFTDLYSQHITAEEAREALP [E12H] | 3.39 |
| LPALFTDLYSQSITAEEAREALP [E12S] | 3.13 |
| LPALFTDLYSQVITAEEAREALP [E12V] | 3.38 |
| LPALFTDLYSQPITAEEAREALP [E12P] | 3.77 |
| LPALFTDLYSQTITAEEAREALP [E12T] | 3.03 |
| LPALFTDLYSQEITAYEAREALP [E16Y] | 2.51 |
| LPALFTDLYSQEITAIEAREALP [E16I] | 2.99 |
| LPALFTDLYSQEITASEAREALP [E16S] | 2.86 |
| LPALFTDLYSQEITAVEAREALP [E16V] | 2.48 |
| LPALFTDLYSQEITAFEAREALP [E16F] | 2.89 |
| LPALFTDLYSQEITATEAREALP [E16T] | 2.62 |
| LPALFTDLYSQEITANEAREALP [E16N] | 2.81 |
| LPALFTDLYSQEITAHEAREALP [E16H] | 2.75 |
| LPALFTDLYSQEITAQEAREALP [E16Q] | 2.64 |
| LPALFTDLYSQEITACEAREALP [E16C] | 2.51 |
| LPALFTDLYSQEITALEAREALP [E16L] | 2.73 |
